# “Also recorded” adds a separate entry of the source.
# B1: OsHSL1 protein: rice-derived HSL protein, typically a protein having an amino acid sequence of SEQ ID NO: 4 (protein, listed as Oryza sativa)
# chain: MADESWRTPAIVQELAAAGVEEPPSRYVLGEKDRSDELVAAELPEPIPVVDLSRLAGADEAAKLRAALQNWGFFLLTNHGVETSLMDDVLNLAREFFNQPIERKRKFSNLIDGKNFQVEGYGTDRVVTQDQILDWSDRLFLRVEPKEERNLAFWPDHPESFRDVLNEYASRTKRIRDDIVQAMSKLLGLDEDYFFDRLNKAPALARFNYYPPCPRPDLVFGVRPHSDGSLFTILLVDEDVGGLQIQRDGKWYNVQVTPNTLLINLGDTMEVLCNGIFRSPVHRVVTNAERERISLAMFYSVNDEKDIGPAAGLLDENRPARYRKVSVGEFRAGIIGKFSRRERYIDSLKI
# Experiments:
# [1] = tested on: benzobicyclon-susceptible cultivar "Yamadawara"; assay: Resistance to BBC of rice expressing OsHSL1 or its F140H mutant; assay type: in vivo; settings: T1 seeds, MS medium containing 0.25 μM BBC, 30° C., bright place, 8 days
# Description: Next, the efficacy of the F140H mutation was confirmed using rice. Specifically, first, an mHSL1 gene obtained by modifying phenylalanine at position 140 in a rice HSL1 cDNA gene to histidine was prepared. Subsequently, the mutated gene or an HSL1 gene in which the mutation was not introduced was linked to downstream of the 35S promoter and was cloned together with a hygromycin-resistance gene expression cassette in the binary vector. Then, these vectors were each introduced into a benzobicyclon-susceptible cultivar “Yamadawara” by an agrobacterium method and recombinant rice was grown.
# The recombinant rice (T1) seeds thus produced and the seeds of the original cultivar “Yamadawara” were tested and seeded on an MS medium containing 0.25 μM BBC in a sterile manner and grown at 30° C. in a bright place for 8 days.
# [2] = 4-HPPD inhibitor decomposition activity by HPLC, substrate mesotrione; assay type: biochemical; settings: cell-free synthesized protein, not shown in the figures
# Description: (§1) Then, the amounts of the synthesized proteins obtained in Examples 1 to 4 as described above were estimated as described below, followed by the analysis on the 4-HPPD inhibitor decomposition activities. Cell-free protein synthesis was conducted without adding [^14C]-Leucine Leucine under the same conditions as those in the estimation of the synthesized amount to estimate the protein concentration of this translation reaction liquid from the above-described estimation. Then, 100 μl of the translation reaction liquid was subjected to buffer exchange to a basic translation buffer (30 mM HEPES-KOH (pH=7.8), 100 mM KOAc) by using the illustra MicroSpin G-25 column (manufactured by GE Healthcare). The amounts of the solution before and after the buffer exchange were measured and the estimated protein concentration was corrected. […] Elution was conducted at a flow speed of 1 mL/min and a column temperature of 40° C. under solvent conditions of acetonitrile:water (1% acetic acid)=55:45 or 50:50 (BBC-OH), acetonitrile:water (1% acetic acid)=45:55 (Sulcotrione), acetonitrile:water (1% acetic acid)=45:55 (Mesotrione), acetonitrile:water (1% acetic acid)=55:45 or 50:50 (tefryltrone), and acetonitrile:water (1% acetic acid)=55:45 or 50:50 (Tembotrione), respectively, and the compound was detected at an ultraviolet wavelength of 286 nm.
# [3] = 4-HPPD inhibitor decomposition activity by HPLC, substrate tembotrione; assay type: biochemical; settings: cell-free synthesized protein, not shown in the figures
# Description: as §1
# [4] = 4-HPPD inhibitor decomposition activity by HPLC, substrate BBC-OH; assay type: biochemical; settings: cell-free synthesized protein; FeCl2, ascorbic acid, 2-oxoglutarate; 30° C. for 3 hours; HPLC
# Text: (§2) Then, the decomposition reaction of a 4-HPPD inhibitor was examined in the presence of divalent iron ions, 2-oxoglutarate, and molecular oxygen in a test tube by a method described later using the HIS1 protein prepared by this cell-free protein synthesis system.
# (§3) Here, in commercially-available wheat germ extracts, dithiothreitol (DTT) is used as a reducing agent and a protein synthesizing reaction liquid also contains DTT. It was confirmed in advance by liquid chromatography that under the coexistence of divalent iron ions and ascorbic acid, which is a stabilizer for the divalent iron ions, DTT generated radical compounds and secondarily affected the enzyme reaction of HIS1 proteins. For this reason, in the present Example, an unreported protein synthesizing reaction system using Tris (2-carboxyethyl) phosphine (TCEP) as a reducing agent instead of DTT was newly constructed, with which the synthesis of HIS1 proteins and the like was conducted to examine the 4-HPPD inhibitor decomposition activity of these. The decomposition activity was analyzed on the reaction liquid of the protein and the 4-HPPD inhibitor using a high-performance liquid chromatography (mobile phase; 0.5% acetic acid water:acetonitrile=65:35, flow rate; 1 mL/min, feeding; isocratic, column; CAPCELL PAK ADME S5).
# Then, the amounts of the synthesized proteins obtained in Examples 1 to 4 as described above were estimated as described below, followed by the analysis on the 4-HPPD inhibitor decomposition activities.
# Cell-free protein synthesis was conducted without adding [^14C]-Leucine Leucine under the same conditions as those in the estimation of the synthesized amount to estimate the protein concentration of this translation reaction liquid from the above-described estimation. Then, 100 μl of the translation reaction liquid was subjected to buffer exchange to a basic translation buffer (30 mM HEPES-KOH (pH=7.8), 100 mM KOAc) by using the illustra MicroSpin G-25 column (manufactured by GE Healthcare). The amounts of the solution before and after the buffer exchange were measured and the estimated protein concentration was corrected.
# An enzyme reaction liquid was prepared by mixing 250 mM of HEPES-KOH (pH 7.0) with a mixture liquid, which contained 0.25 mM of FeCl2, 1.5 mM of ascorbic acid, 1.5 mM of 2-oxoglutarate, and 0.75 mM of a substrate, and a translation reaction liquid, which contained a synthesized enzyme protein, in a proportion of 40% and 60%, respectively. After incubation at 30° C. for 3 hours, 100% methanol in the same amount as the enzyme reaction liquid was added and sufficiently mixed, followed by being left to stand for 5 minutes on ice. This was subjected to centrifuge separation (20, 400 g, 20 minutes, 4° C.) and the supernatant was passed through Cosmonice Filter W (0.45 μm) (manufactured by Nacalai Tesque, Inc.) to obtain a sample for high-performance liquid chromatography. The analysis on the substrate and the product before and after the enzyme reaction was conducted by loading a column_Pro C18 (150×4.6 mm I.D.) (manufactured by YMC Co., Ltd.) on a high-performance liquid chromatography device_ELITE LaChrom L-2000 series (manufactured by Hitachi, Ltd.). Elution was conducted at a flow speed of 1 mL/min and a column temperature of 40° C. under solvent conditions of acetonitrile:water (1% acetic acid)=55:45 or 50:50 (BBC-OH), acetonitrile:water (1% acetic acid)=45:55 (Sulcotrione), acetonitrile:water (1% acetic acid)=45:55 (Mesotrione), acetonitrile:water (1% acetic acid)=55:45 or 50:50 (tefryltrone), and acetonitrile:water (1% acetic acid)=55:45 or 50:50 (Tembotrione), respectively, and the compound was detected at an ultraviolet wavelength of 286 nm.
# (§4) Note that the 5-point scale of the decomposition activity in each of FIGS. 12 to 17 is based on a relative value of the degree of decrease in a substrate-derived peak area detected by HPLC where the degree of decrease in the HIS1 protein was designated by 5. […]
# [5] = 4-HPPD inhibitor decomposition activity by HPLC, substrate tefuryltrione; assay type: biochemical; settings: cell-free synthesized protein; FeCl2, ascorbic acid, 2-oxoglutarate; 30° C. for 3 hours; HPLC
# Text: as §2
# as §3, with “S5). […]” for “S5).”
# (§5) Cell-free protein synthesis was conducted without adding [^14C]-Leucine Leucine under the same conditions as those in the estimation of the synthesized amount to estimate the protein concentration of this translation reaction liquid from the above-described estimation. […] The amounts of the solution before and after the buffer exchange were measured and the estimated protein concentration was corrected. […]
# as §4
# [6] = 4-HPPD inhibitor decomposition activity by HPLC, substrate sulcotrione; assay type: biochemical; settings: cell-free synthesized protein; FeCl2, ascorbic acid, 2-oxoglutarate; 30° C. for 3 hours; HPLC
# Text: as §2
# as §3, with “S5). […]” for “S5).”
# as §5, §4
molecule,measurement,setting,value
B1,BBC resistance (growth condition),[1],whitened
same,mesotrione decomposition activity,[2],only very weak decomposition activity
same,tembotrione decomposition activity,[3],only very weak decomposition activity
same,BBC-OH decomposition activity,[4],hardly observed; also recorded: only very weak decomposition activity
same,tefuryltrione decomposition activity,[5],"lower than that of the HIS1 protein; also recorded: had the decomposition activity, which was less effective than that of the HIS1 protein"
same,sulcotrione decomposition activity,[6],hardly observed; also recorded: only very weak decomposition activity

# — US12644128B2, “Method for producing HSL protein having catalytic activity for 2-oxoglutaric acid-dependently oxidizing 4-HPPD inhibitor” (National Agriculture and Food Research Organization, priority 2017, dated 2026)
